Results on 5 molecules are retold here after patent publication US20210301011A1, “COMPOSITION FOR PROPHYLAXIS OR TREATMENT OF IL-8 RELATED DISEASES” (CHUGAI SEIYAKU KABUSHIKI KAISHA, priority 2016, published 2021).

One data set relates to neutrophil migration. The settings on record: clinical trials against cystic fibrosis; cited from earlier work.
Data set [1] deals with pulmonary function (FEV1). To be noted: clinical trials for COPD patients; worsened in the placebo group; cited from earlier work.
The conditions of data set [2]: commercially available antibodies, known values; cited from earlier work.
Another data set addresses T1, human FcγRIa (Homo sapiens, UniProt P12314).
T1 construct: the soluble forms of FcγRIa and FcγRIIIa in human and cynomolgus monkey; His tag; made in house
Nature of the data set: Binding to soluble FcγR (BIACORE T200). The settings on record: 20° C., HBS-EP+. The procedure:
(§1) Soluble FcγRIa and FcγRIIIa in both human and cynomolgus monkey were produced in the form of His-tagged molecules by methods known to those of ordinary skill in the art. […] Next, soluble FcγRIa or FcγRIIIa was injected with a running buffer (used as a reference solution), and was made to interact with the antibodies captured onto the sensor chip. HBS-EP+(GE Healthcare) was used as the running buffer, and HBS-EP+ was also used to dilute the soluble FcγRIa or FcγRIIIa. […] All measurements were carried out at 20° C.
In general terms: In SPR one partner is held on a chip, and binding of the other changes the refractive index at the surface.

The target in data set [3] is T2, cynomolgus monkey FcγRIIIa (Macaca fascicularis, UniProt Q8SPW2).
T2 construct: the soluble forms of FcγRIa and FcγRIIIa in human and cynomolgus monkey; His tag; made in house
T2 sequence (Q8SPW2 17-208 limits assumed): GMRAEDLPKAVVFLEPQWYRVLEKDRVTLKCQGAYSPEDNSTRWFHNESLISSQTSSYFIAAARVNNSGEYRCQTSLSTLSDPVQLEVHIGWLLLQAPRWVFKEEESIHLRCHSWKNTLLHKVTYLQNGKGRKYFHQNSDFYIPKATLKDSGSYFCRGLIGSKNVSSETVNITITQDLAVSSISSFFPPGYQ
Nature of the data set: Binding to soluble FcγR (BIACORE T200). To be noted: 20° C., HBS-EP+. The procedure:
as §1

The next data set has as its system cynomolgus monkey FcγRIa. Nature of the data set: Binding to soluble FcγR (BIACORE T200). The settings on record: 20° C., HBS-EP+. How it is done: as §1
In another data set the target is T3, human FcγRIIIa (Homo sapiens, UniProt P08637).
T3 construct: the soluble forms of FcγRIa and FcγRIIIa in human and cynomolgus monkey; His tag; made in house
T3 sequence (P08637 17-208 limits assumed): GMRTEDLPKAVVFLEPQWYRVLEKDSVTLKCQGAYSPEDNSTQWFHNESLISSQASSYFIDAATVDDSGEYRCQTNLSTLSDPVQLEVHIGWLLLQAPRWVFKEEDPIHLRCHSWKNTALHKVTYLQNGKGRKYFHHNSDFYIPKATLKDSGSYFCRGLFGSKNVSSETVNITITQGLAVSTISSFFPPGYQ
Nature of the data set: Binding to soluble FcγR (BIACORE T200). To be noted: 20° C., HBS-EP+. How it is done: as §1

T1 sequence (P12314 16-292 limits assumed): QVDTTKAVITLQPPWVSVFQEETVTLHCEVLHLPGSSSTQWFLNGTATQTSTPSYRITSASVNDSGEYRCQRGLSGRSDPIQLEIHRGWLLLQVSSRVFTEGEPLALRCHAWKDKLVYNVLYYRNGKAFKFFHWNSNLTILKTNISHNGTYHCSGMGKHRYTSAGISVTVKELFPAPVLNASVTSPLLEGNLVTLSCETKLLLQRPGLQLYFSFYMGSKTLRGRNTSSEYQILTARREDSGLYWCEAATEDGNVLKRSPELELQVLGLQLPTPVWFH

`O=C(Nc1ccc(Cl)c(S(=O)(=O)N2CCNCC2)c1O)Nc1cccc(F)c1Cl` [Elubrixin]: the topical neutrophil migration result in the data set on neutrophil migration is recorded as “Topical neutrophil migration was observed to be suppressed”.

Take `CC[C@@H](Nc1c(Nc2cccc(C(=O)N(C)C)c2O)c(=O)c1=O)c1ccc(C)o1` [MK7123]: the “pulmonary function (FEV1)” value in data set [1] is given as “pulmonary function (FEV1) was improved in the active drug group”.

On to “Campath: commercially available antibody”, for which the “frequency of ADA development in humans” value in data set [2] is given as 45%.

Consider “Zenapax: commercially available antibody”, for which the “frequency of ADA development in humans” value in data set [2] was 14%.

B1: H1009/L395-F1886m: variable region of H1009/L395 with Fc variant F1886m (antibody)
heavy: QVQLVESGGGLVQPGGSLRLSCAASGFTFSDYYLSWVRQAPGKGLEWVGLIRNKDNYHTPEYSASVKGRFTISRDDSKNSLYLTMSDLKTEDTAVYYCARENHRYDVELAYWGQGTLVTVSSASTKGPSVFPLAPSSKSTSGGTAALGCLVKDYFPEPVTVSWNSGALTSGVHTFPAVLQSSGLYSLSSVVTVPSSSLGTQTYICNVNHKPSNTKVDKKVEPKSCDKTHTCPPCPAPELLGGPSVFLFPPKPKDTLMISRTPEVTCVVVDVSHEDPEVKFNWYVDGVEVHNAKTKPREEQYNSTYRVVSVLTVLHQDWLNGKEYKCKVSNKALPAPIEKTISKAKGQPREPQVYTLPPSREEMTKNQVSLTCLVKGFYPSDIAVEWESNGQPENNYKTTPPVLDSDGSFFLYSKLTVDKSRWQQGNVFSCSVLHEALHAHTTRKELSLSP
light: DIQMTQSPSSLSASVGDRVTITCRASEIIYSYLAWYQQKPGKAPKLLIYKAKTHADGVPSRFSGSGSGTDFTFTISSLQPEDIATYYCKHHFGFPRTFGQGTKVEIKRTVAAPSVFIFPPSDEQLKSGTASVVCLLNNFYPREAKVQWKVDNALQSGNSQESVTEQDSKDSTYSLSSTLTLSKADYEKHKVYACEVTHQGLSSPVTKSFNRGEC
B1: in the data set with human FcγRIa, the “binding to soluble human FcγRIa” value is reported as “bind to all FcγRs”. Also, in data set [3], the “binding to soluble cynomolgus monkey FcγRIIIa” value was “bind to all FcγRs”. Further, the “binding to soluble cynomolgus monkey FcγRIa” value with cynomolgus monkey FcγRIa is reported as “bind to all FcγRs”. Besides, the “binding to soluble human FcγRIIIa” value with human FcγRIIIa is on record as “bind to all FcγRs”.
